{"source": "paper PMC5566955", "key": {"[1]": {"molecular_target": "MacQ heterodimer consisting of an α-chain and a β-chain (wild-type, cleaved form) (Acidovorax sp. strain MR-S7)", "experiment": "crystal structure; wild-type MacQ, ligand-free and with the reaction products C10 and PAA; crystals at 20 °C from 100 mM Tris-HCl pH 7.5–8.5, 0.1–0.2 M calcium acetate, 14–18% PEG 3350"}, "[2]": {"molecular_target": "MacQ heterodimer consisting of an α-chain and a β-chain (wild-type, cleaved form) (Acidovorax sp. strain MR-S7)", "experiment": "SEC; analytical gel filtration, Superose 6 10/300 GL, 50 mM sodium phosphate pH 8.0, 200 mM NaCl, 0.4 mL/min"}}, "data": [{"substance": "MacQ heterodimer consisting of an α-chain and a β-chain (wild-type, cleaved form) (complex)", "values": [{"measurement": "stoichiometry N", "setting": "[1]", "result": 2}, {"measurement": "stoichiometry N", "setting": "[2]", "result": 2}]}]}
